Positions count from the first letter of the chain named.
B1: XT-M4-V10 (antibody, from a related filing, V domains shown)
VH: EVQLVESGGGLVQPGGSLRLSCAASGFTFNNYWMTWVRQAPGKGLEWVASIDNSGDNTYYPDSVKDRFTISRDNAKNSLYLQMNSLRAEDTAVYYCARGGDITTGFDYWGQGTLVTVSS
VL: DIQMTQSPSSLSASVGDRVTITCRASQDVGIYVNWFQQKPGKAPKRLIYRATNLADGVPSRFSGSGSGTDFTLTISSLQPEDFATYYCLEFDEHPLTFGGGTKVEIK
B2: XT-M4-V14 (antibody, from a related filing, V domains shown)
VH: B1 VH
VL: B1 VL with G66R
B3: XT-M4-V11 (antibody, from a related filing, V domains shown)
VH: B1 VH
VL: B1 VL with K45R, G66R

target: human RAGE-strep tag fusion protein (human) (UniProt Q15109); assay: BIACORE capture assay: hRAGE-SA over antibody captured on anti-human Fc; steady state affinity; FC2
Sequence (Q15109 other isoform, or with tags, fused parts or gaps): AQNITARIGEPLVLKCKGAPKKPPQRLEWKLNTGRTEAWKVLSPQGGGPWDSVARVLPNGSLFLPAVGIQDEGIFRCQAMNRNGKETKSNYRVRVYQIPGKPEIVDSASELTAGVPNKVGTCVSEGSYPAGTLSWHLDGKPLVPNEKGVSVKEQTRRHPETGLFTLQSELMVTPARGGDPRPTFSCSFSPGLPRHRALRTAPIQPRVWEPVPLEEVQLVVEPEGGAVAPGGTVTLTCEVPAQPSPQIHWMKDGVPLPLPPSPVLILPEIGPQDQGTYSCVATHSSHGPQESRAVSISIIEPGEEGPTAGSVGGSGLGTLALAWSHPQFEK

Kd [µM] | Binder
0.025 | B1
0.016 | B2
0.016 | B3

target: human RAGE-strep tag fusion protein (human) (UniProt Q15109); assay: BIACORE capture assay: hRAGE-SA over antibody captured on anti-human Fc; steady state affinity; FC3

Kd [µM] | Binder
0.024 | B1
0.015 | B2
0.015 | B3

target: human RAGE-strep tag fusion protein (human) (UniProt Q15109); assay: BIACORE capture assay: hRAGE-SA over antibody captured on anti-human Fc; steady state affinity; FC4

Kd [µM] | Binder
0.026 | B1
0.016 | B2
0.017 | B3

target: human RAGE-strep tag fusion protein (human) (UniProt Q15109); assay: BIACORE capture assay: hRAGE-SA over antibody captured on anti-human Fc; 1:1 Langmuir global fit; FC2

Kd [µM] | koff [s⁻¹] | kon [M⁻¹ s⁻¹] | Binder
0.0318 | 0.00972 | 306000 | B1
0.0138 | 0.0366 | 2.66e+06 | B2
0.013 | 0.033 | 2.5e+06 | B3

target: human RAGE-strep tag fusion protein (human) (UniProt Q15109); assay: BIACORE capture assay: hRAGE-SA over antibody captured on anti-human Fc; 1:1 Langmuir global fit; FC3

Kd [µM] | koff [s⁻¹] | kon [M⁻¹ s⁻¹] | Binder
0.0182 | 0.0569 | 3.13e+06 | B1
0.0117 | 0.0464 | 3.96e+06 | B2
0.012 | 0.039 | 3.4e+06 | B3

target: human RAGE-strep tag fusion protein (human) (UniProt Q15109); assay: BIACORE capture assay: hRAGE-SA over antibody captured on anti-human Fc; 1:1 Langmuir global fit; FC4

Kd [µM] | koff [s⁻¹] | kon [M⁻¹ s⁻¹] | Binder
0.0203 | 0.0704 | 3.47e+06 | B1
0.0132 | 0.0661 | 5.02e+06 | B2
0.013 | 0.041 | 3.2e+06 | B3

target: human RAGE-strep tag fusion protein (human) (UniProt Q15109); assay: BIACORE capture assay: hRAGE-SA over antibody captured on anti-human Fc; steady state affinity; average of FC2-FC4

Kd [µM] | Binder
0.025 | B1
0.016 | B2
0.016 | B3

target: murine RAGE-strep tag fusion protein (murine) (UniProt Q62151); assay: BIACORE capture assay: mRAGE-SA (SA-Mu RAGE) over antibody captured on anti-human Fc; 1:1 Langmuir global fit; FC2
Sequence (Q62151 other isoform, or with tags, fused parts or gaps): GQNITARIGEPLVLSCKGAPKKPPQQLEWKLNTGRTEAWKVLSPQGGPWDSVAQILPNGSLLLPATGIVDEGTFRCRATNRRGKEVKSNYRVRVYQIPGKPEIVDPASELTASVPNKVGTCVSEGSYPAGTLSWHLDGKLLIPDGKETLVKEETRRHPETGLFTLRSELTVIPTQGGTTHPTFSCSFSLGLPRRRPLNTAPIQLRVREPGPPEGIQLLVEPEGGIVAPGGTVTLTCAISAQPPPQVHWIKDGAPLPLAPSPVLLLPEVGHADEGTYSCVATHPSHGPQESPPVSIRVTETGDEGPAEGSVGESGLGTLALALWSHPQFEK

Kd [µM] | koff [s⁻¹] | kon [M⁻¹ s⁻¹] | Binder
0.003 | 0.0078 | 2.6e+06 | B1
0.002 | 0.0043 | 2.2e+06 | B2
0.002 | 0.0043 | 2.2e+06 | B3

target: murine RAGE-strep tag fusion protein (murine) (UniProt Q62151); assay: BIACORE capture assay: mRAGE-SA (SA-Mu RAGE) over antibody captured on anti-human Fc; 1:1 Langmuir global fit; FC3

Kd [µM] | koff [s⁻¹] | kon [M⁻¹ s⁻¹] | Binder
0.0029 | 0.0076 | 2.6e+06 | B1
0.0019 | 0.004 | 2.1e+06 | B2
0.002 | 0.0042 | 2.1e+06 | B3

target: murine RAGE-strep tag fusion protein (murine) (UniProt Q62151); assay: BIACORE capture assay: mRAGE-SA (SA-Mu RAGE) over antibody captured on anti-human Fc; 1:1 Langmuir global fit; FC4

Kd [µM] | koff [s⁻¹] | kon [M⁻¹ s⁻¹] | Binder
0.003 | 0.0078 | 2.6e+06 | B1
0.002 | 0.0041 | 2.1e+06 | B2
0.002 | 0.0041 | 2e+06 | B3

target: human RAGE-strep tag fusion protein (human) (UniProt Q15109); assay: BIACORE capture assay: hRAGE-SA over antibody captured on anti-human Fc; 1:1 Langmuir global fit; average of FC2-FC4

Kd [µM] | koff [s⁻¹] | kon [M⁻¹ s⁻¹] | Binder
0.0234 | 0.0457 | 2.3e+06 | B1
0.0129 | 0.0497 | 3.88e+06 | B2
0.0125 | 0.0374 | 3.01e+06 | B3

target: murine RAGE-strep tag fusion protein (murine) (UniProt Q62151); assay: BIACORE capture assay: mRAGE-SA (SA-Mu RAGE) over antibody captured on anti-human Fc; 1:1 Langmuir global fit; average of FC2-FC4

Kd [µM] | koff [s⁻¹] | kon [M⁻¹ s⁻¹] | Binder
0.003 | 0.0077 | 2.6e+06 | B1
0.002 | 0.0042 | 2.1e+06 | B2
0.002 | 0.0042 | 2.1e+06 | B3
